Source: patent US20230094463A1, “ANTIBODIES THAT DISRUPT THE INTERACTION OF GAL3 AND INSULIN RECEPTOR OR INTEGRINS AND METHODS OF USE THEREOF” (TrueBinding, Inc., priority 2019, published 2023)

How the values were obtained:
[1] = target: T1, Gal3 peptides (SEQ ID NOs: 3-26) (Homo sapiens, UniProt P17931); experiment: Gal3 peptide library binding ELISA (epitope mapping)
T1 construct: a library of 24 amino acid peptides representing portions of Gal3; purchased LifeTein custom order

[2] = system: DSS-induced IBD C57BL/6J mice; experiment: DSS mouse model of chronic inflammatory bowel disease; assay type: in vivo; conditions: 3% DSS mice, 10 mg/kg or 1 mg/kg
Procedure: A mouse model of chronic inflammatory bowel disease was implemented to study the effect of Gal-3 antibodies. […] Mice were allowed to rest for one week before initiating the treatment.
Mice were randomized into the four treatment groups: no dextran sulfate sodium salt (DSS), 3% DSS in water+PBS, 3% DSS+mTB001 (10 mg/kg), 3% DSS+mTB001 (1 mg/kg). DSS water mixture was given for five consecutive days followed by seven days of normal water for a total of three DSS cycles and two normal water cycles. Body weight, stool consistency, gross bleeding score, and Hemoccult score (Fisher, SK-61130) were monitored daily. At necropsy, blood, colon, jejunum, ileum, duodenum, and spleen were preserved and flash frozen. Plasma Inflammatory cytokines were measured using Multi-spot Assay Systems (MSD) Proinflammatory Panel 1 (mouse) kit (MSD, K15048D). RT-qPCR was performed on frozen colon samples. Briefly, the colon tissue was disrupted using Qiazol lysis buffer (Qiagen, 79306) and the Qiagen Tissue Lyser II (Qiagen, 85300). RNA was extracted using RNeasy mini kit (Qiagen, 74104). cDNA was synthesized with iScript Reverse Transcription Supermix (BioRad, 1708841) at BioRad C1000 touch thermal cycler (BioRad, 1851138). […]

B1: TB001: Gal3-targeted Gal3-INSR blocking anti-Gal3 antibody; IMT001-4 used with human IgG4 isotype control (antibody, V domains shown)
VH: QVQLVQSGSELKKPGASVKVSCKASGYTFTNYGMNWVRQAPGQGLKWMGWINTNTGEPTYVEEFTGRFVFSLETSVSTAYLQISSLKAEDTAVYFCAPYDNFFAYWGQGTTVTVSS
VL: DIVLTQSPLSLPVTPGEPASISCRSSKSLLYKDGKTYLNWFLQKPGQSPQLLIYLMSTHASGVPDRFSGSGSGTDFTLKISRVEAEDVGVYYCQQLVDYPLTFGGGTKLEIK
- binding to Gal3 Peptide 5 ([1]; Peptide 5 (SEQ ID NO: 7)): bind
- binding to Gal3 Peptide 6 ([1]; Peptide 6 (SEQ ID NO: 8), amino acids 51-70 of Gal3, listed as IMT001 (TB001)): bind and bound
- DSS-induced reduction in the colon length [2]: restored
- DSS-induced inflammation by circulating levels of IFN-gamma ([2]; plasma): reduced DSS-induced inflammation
